Data published in the Immune Epitope Database (IEDB).

What was measured:
HLA-B*58:01 [1] = assay: IEDB peptide-MHC binding, cellular MHC/competitive/fluorescence; ≥ and ≤ were set here for values at or beyond the usual limits of such assays; conditions: source organism: Human herpesvirus 4 strain B95-8
HLA-A*26:03 = assay: IEDB peptide-MHC binding, purified MHC/competitive/fluorescence; filed as Kd, often an IC50 or EC50 that approximates it; ≥ and ≤ were set here for values at or beyond the usual limits of such assays; conditions: source organism: Influenza A virus
HLA-B*39:01 = assay: IEDB peptide-MHC binding, purified MHC/direct/fluorescence; filed as Kd, often an IC50 or EC50 that approximates it; ≥ and ≤ were set here for values at or beyond the usual limits of such assays
HLA-B*15:17 [2] = assay: as above; conditions: source organism: Influenza A virus (A/chicken/Thailand/LV1NF/2004(H5N1))
HLA-A*03:01 = assay: as above
HLA-B*57:01 = assay: as above
HLA-B*58:01 [3] = assay: as above
HLA-B*07:02 = assay: as above
HLA-B*27:05 = assay: as above
HLA-B*44:02 = assay: as above; conditions: source organism: Influenza A virus (A/chicken/Thailand/LV1NF/2004(H5N1))
HLA-A*11:01 [4] = assay: as above; conditions: source organism: Influenza A virus (A/chicken/Thailand/LV1NF/2004(H5N1))
HLA-B*40:01 = assay: as above
HLA-A*69:01 = assay: as above
HLA-A*02:01 = assay: as above
HLA-A*31:01 [5] = assay: as above; conditions: source organism: Influenza A virus (A/chicken/Thailand/LV1NF/2004(H5N1))
HLA-B*15:01 = assay: as above
HLA-A*01:01 = assay: as above
HLA-B*48:01 = assay: as above
HLA-B*18:01 = assay: as above; conditions: source organism: Influenza A virus (A/chicken/Thailand/LV1NF/2004(H5N1))
HLA-B*15:17 [6] = assay: IEDB peptide-MHC binding, purified MHC/competitive/fluorescence; filed as Kd, often an IC50 or EC50 that approximates it; ≥ and ≤ were set here for values at or beyond the usual limits of such assays; conditions: source organism: Bacillus thuringiensis serovar sotto str. T04001
HLA-A*11:01 [7] = assay: as above; conditions: source organism: Bacillus thuringiensis serovar sotto str. T04001
HLA-B*08:01 = assay: as above; conditions: source organism: Bacillus thuringiensis serovar sotto str. T04001
HLA-A*31:01 [8] = assay: as above; conditions: source organism: Bacillus thuringiensis serovar sotto str. T04001
HLA-A*30:01 = assay: as above; conditions: source organism: Bacillus thuringiensis serovar sotto str. T04001
HLA-B*15:09 = assay: IEDB peptide-MHC binding, purified MHC/direct/fluorescence; filed as Kd, often an IC50 or EC50 that approximates it; ≥ and ≤ were set here for values at or beyond the usual limits of such assays; conditions: source organism: Bacillus cereus H3081.97
HLA-B*51:01 = assay: as above; conditions: source organism: Bacillus cereus H3081.97
HLA-A*26:02 = assay: as above; conditions: source organism: Bacillus cereus H3081.97
HLA-B*08:02 = assay: as above; conditions: source organism: Bacillus cereus H3081.97
HLA-A*26:01 = assay: as above; conditions: source organism: Bacillus cereus H3081.97
HLA-B*38:01 = assay: as above; conditions: source organism: Bacillus cereus H3081.97
HLA-B*53:01 = assay: IEDB peptide-MHC binding, purified MHC/competitive/fluorescence; ≥ and ≤ were set here for values at or beyond the usual limits of such assays; conditions: source organism: Human immunodeficiency virus 1
[9] = source organism: Influenza A virus (A/chicken/Thailand/LV1NF/2004(H5N1))
[10] = source organism: Bacillus anthracis

Work on ATLNICNFW yielded an IC50 (HLA-B*58:01 [1]) of 5 µM.
EMIWDPNGW gave a Kd (HLA-A*26:03) of no less than 20 µM, a Kd (HLA-B*39:01; source organism: Influenza A virus (A/chicken/Hebei/706/2005(H5N1))) of no less than 20 µM and a Kd (HLA-B*15:17 [2]) of no less than 20 µM. The Kd (HLA-A*03:01; [9]) was no less than 20 µM, the Kd (HLA-B*57:01; [9]) was no less than 20 µM and the Kd (HLA-B*58:01 [3]; source organism: Influenza A virus (A/Puerto Rico/8/34/Mount Sinai(H1N1))) was 0.185 µM. It also gave a Kd (HLA-B*07:02; [9]) of no less than 20 µM, a Kd (HLA-B*27:05; [9]) of no less than 20 µM and a Kd (HLA-B*44:02) of no less than 20 µM. For the same sequence, the Kd (HLA-A*11:01 [4]) was no less than 20 µM, the Kd (HLA-B*40:01; [9]) was no less than 20 µM and the Kd (HLA-A*69:01; [9]) was no less than 20 µM. For the same sequence, the Kd (HLA-A*02:01; [9]) was no less than 20 µM, the Kd (HLA-A*31:01 [5]) was no less than 20 µM and the Kd (HLA-B*15:01; [9]) was no less than 20 µM. The Kd (HLA-A*01:01; [9]) was no less than 20 µM, the Kd (HLA-B*48:01; [9]) was no less than 20 µM and the Kd (HLA-B*18:01) was 2 µM.
With TVIRFWHAM the Kd (HLA-B*15:17 [6]) was 0.293 µM, the Kd (HLA-A*11:01 [7]) was 0.0979 µM and the Kd (HLA-B*08:01) was no less than 20 µM. It also gave a Kd (HLA-A*31:01 [8]) of 0.0344 µM, a Kd (HLA-A*30:01) of 0.168 µM and a Kd (HLA-B*39:01; source organism: Bacillus cereus H3081.97) of 0.05 µM. It also gave a Kd (HLA-B*15:09) of 6.04 µM, a Kd (HLA-A*03:01; [10]) of no less than 20 µM and a Kd (HLA-B*51:01) of no less than 20 µM. The Kd (HLA-B*57:01; [10]) was 0.593 µM, the Kd (HLA-B*58:01 [3]; [10]) was 0.074 µM and the Kd (HLA-B*07:02; [10]) was 1.81 µM. The Kd (HLA-B*27:05; [10]) was no less than 20 µM, the Kd (HLA-B*40:01; [10]) was no less than 20 µM and the Kd (HLA-A*69:01; [10]) was no more than 0.001 µM. The Kd (HLA-A*26:02) was no more than 0.001 µM, the Kd (HLA-B*08:02) was no less than 20 µM and the Kd (HLA-A*02:01; [10]) was no less than 20 µM. For the same sequence, the Kd (HLA-B*15:01; [10]) was 0.0207 µM, the Kd (HLA-A*26:01) was 0.012 µM and the Kd (HLA-A*01:01; [10]) was no less than 20 µM. It also gave a Kd (HLA-B*38:01) of no less than 20 µM and a Kd (HLA-B*48:01; [10]) of no less than 20 µM.
In the case of WPVKVIHT, the IC50 (HLA-B*53:01) is reported as no less than 20 µM.
